Measured values from US20240376190A1 (Chugai, published 2024).

Columns and labels:
[1] = molecular target: T1, human cell surface latent TGF-beta 1 expressed on FreeStyle 293-F cells (human, UniProt P01137 30-390); assay: flow cytometry (FACS) on FreeStyle 293-F cells, PE anti-human IgG secondary
T1 construct: whole, on cells; also called human latent TGF-beta 1
Protocol: (§1) The anti-latent TGF-beta 1 antibodies (10 microgram/mL each) were incubated with each cell line for 30 minutes at 4 degree C. and washed with FACS buffer (2% PBS, 2 mM EDTA in PBS). […] Data acquisition was performed on an FACS Verse (Becton Dickinson), followed by analysis and calculation of Mean Fluorescence Intensity (MFI), using FlowJo (trademark) software (Tree Star) and GraphPad Prism software (GraphPad).

[2] = molecular target: T2, mouse cell surface latent TGF-beta 1 expressed on Ba/F3 cells (mouse, UniProt P04202 30-390); assay: flow cytometry (FACS) on BaF3 cells, PE anti-human IgG secondary
T2 construct: whole, on cells; also called mouse latent TGF-beta 1
T2 sequence (P04202 30-390): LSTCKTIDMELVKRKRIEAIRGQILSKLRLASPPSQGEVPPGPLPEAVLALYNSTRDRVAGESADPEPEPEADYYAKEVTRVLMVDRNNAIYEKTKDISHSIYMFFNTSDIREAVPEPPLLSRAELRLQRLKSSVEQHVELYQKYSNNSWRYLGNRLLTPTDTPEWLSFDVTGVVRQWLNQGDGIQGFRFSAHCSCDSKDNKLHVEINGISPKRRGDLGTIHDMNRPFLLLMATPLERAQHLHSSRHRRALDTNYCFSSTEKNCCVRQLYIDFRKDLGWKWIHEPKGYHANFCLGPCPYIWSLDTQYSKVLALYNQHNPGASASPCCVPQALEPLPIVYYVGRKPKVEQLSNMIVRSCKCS
Protocol: as §1

binding result [1]: no binding (tested: 10 microgram/mL)
binding result [2]: no binding (tested: 10 microgram/mL)
B1: Anti-KLH antibody IC17dK-SG181 (antibody, human IgG1, kappa, V domains shown)
VH: QVQLQQSGPQLVRPGASVKISCKASGYSFTSYWMHWVNQRPGQGLEWIGMIDPSYSETRLNQKFKDKATLTVDKSSSTAYMQLSSPTSEDSAVYYCALYGNYFDYWGQGTTLTVSS
VL: DIQMTQSSSSFSVSLGDRVTITCKASEDIYNRLAWYQQKPGNAPRLLISGATSLETGVPSRFSGSGSGKDYTLSITSLQTEDVATYYCQQYWSTPYTFGGGTKLEVKR
notes: Anti-KLH antibody with a human IgG1 Fc region, used as negative control; also called negative control antibody
